Legend:
[1] = target: T1, Human ADAM9 protein (ACROBiosystems, Cat. No. AD9-H52H7) (human, UniProt Q13443 29-697); assay: SPR (Biacore 8K), antibody captured by anti-human Fc on CM5, ADAM9 as analyte
T1 construct: Bought protein; also called Human ADAM-His protein; human ADAM9 antigen; not shown: His tag
T1 sequence (looked up): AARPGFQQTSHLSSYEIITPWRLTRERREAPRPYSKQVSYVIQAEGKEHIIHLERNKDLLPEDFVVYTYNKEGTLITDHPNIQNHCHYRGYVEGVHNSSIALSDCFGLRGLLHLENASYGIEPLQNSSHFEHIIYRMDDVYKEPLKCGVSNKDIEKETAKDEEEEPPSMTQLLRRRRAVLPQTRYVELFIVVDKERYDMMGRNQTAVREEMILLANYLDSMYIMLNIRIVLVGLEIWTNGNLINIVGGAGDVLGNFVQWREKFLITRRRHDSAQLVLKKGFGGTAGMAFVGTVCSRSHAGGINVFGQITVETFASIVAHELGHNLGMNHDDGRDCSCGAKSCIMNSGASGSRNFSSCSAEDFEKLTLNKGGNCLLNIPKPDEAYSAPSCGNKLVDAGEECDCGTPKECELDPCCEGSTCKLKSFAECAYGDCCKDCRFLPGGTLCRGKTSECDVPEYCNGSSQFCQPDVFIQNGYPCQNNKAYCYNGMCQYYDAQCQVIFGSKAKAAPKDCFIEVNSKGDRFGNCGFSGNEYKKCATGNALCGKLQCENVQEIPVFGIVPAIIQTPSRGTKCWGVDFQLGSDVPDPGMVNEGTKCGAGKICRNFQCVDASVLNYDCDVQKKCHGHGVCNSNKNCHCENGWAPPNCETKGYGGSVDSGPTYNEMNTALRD
Protocol: Chip preparation: The mouse anti-human IgG (Fc) antibody (Cat. No. 29234600, Cytiva) was diluted to 25 μg/mL in immobilization buffer (10 mM sodium acetate, pH 5.0), specifically by adding 950 μL of the immobilization buffer to 50 μL of the mouse anti-human IgG (Fc) antibody. The dilution was used for immobilization in eight channels. First, the surface of the CM5 chip was activated with 400 mM EDC and 100 mM NHS at a flow rate of 10 μL/min for 420 seconds. Then, 25 μg/mL of the mouse anti-human IgG (Fc) antibody was injected into the test channels at a flow rate of 10 μL/min for approximately 360 seconds, with the level of immobilization at approximately 7000 to 14000 RU. Finally, the chip was blocked with 1 M ethanolamine at a flow rate of 10 μL/min for 420 seconds. The reference channels underwent the same procedures as the test channels.
Ligand capture: Antibodies Ab10, Ab15, Ab16, and hMAB-A (2I.2) were diluted to 4 μg/mL in running buffer (containing 10 mM N-(2-hydroxyethyl)piperazine-N-2-ethanesulfonic acid (HEPES), 150 mM sodium chloride (NaCl), 3 mM ethylenediaminetetraacetic acid (EDTA), 0.005% Tween-20, pH adjusted to 7.4) and injected into the test channels for human IgG (Fc) capture at a flow rate of 10 μL/min at approximately 200 RU. No ligand capture was performed in the reference channels.
Analyte multi-cycle analysis: Human and cynomolgus ADAM9 proteins (human ADAM9 protein purchased from ACRO, Cat. No. AD9-H52H7; monkey ADAM9 protein purchased from ACRO, Cat. No. AD9-C52H7) were diluted 2-fold in running buffer (Table 10). The diluted human or cynomolgus ADAM9 protein was sequentially injected into the test channels and the reference channels at a flow rate of 30 μL/min, with corresponding association and dissociation times. Both the association and dissociation steps were performed in the running buffer. After each concentration analysis, the chip was regenerated with 3 M magnesium chloride at a flow rate of 20 μL/min for 30 seconds to wash away the ligand and any undissociated analyte. For the next concentration analysis, the test channels required re-capture of the same amount of ligand.

[2] = target: T2, ADAM9 on human tumor cells (LS174T, HepG2, Calu-3, Colo205) (human, UniProt Q13443 29-819); assay: cell-based or functional assay
T2 sequence (looked up): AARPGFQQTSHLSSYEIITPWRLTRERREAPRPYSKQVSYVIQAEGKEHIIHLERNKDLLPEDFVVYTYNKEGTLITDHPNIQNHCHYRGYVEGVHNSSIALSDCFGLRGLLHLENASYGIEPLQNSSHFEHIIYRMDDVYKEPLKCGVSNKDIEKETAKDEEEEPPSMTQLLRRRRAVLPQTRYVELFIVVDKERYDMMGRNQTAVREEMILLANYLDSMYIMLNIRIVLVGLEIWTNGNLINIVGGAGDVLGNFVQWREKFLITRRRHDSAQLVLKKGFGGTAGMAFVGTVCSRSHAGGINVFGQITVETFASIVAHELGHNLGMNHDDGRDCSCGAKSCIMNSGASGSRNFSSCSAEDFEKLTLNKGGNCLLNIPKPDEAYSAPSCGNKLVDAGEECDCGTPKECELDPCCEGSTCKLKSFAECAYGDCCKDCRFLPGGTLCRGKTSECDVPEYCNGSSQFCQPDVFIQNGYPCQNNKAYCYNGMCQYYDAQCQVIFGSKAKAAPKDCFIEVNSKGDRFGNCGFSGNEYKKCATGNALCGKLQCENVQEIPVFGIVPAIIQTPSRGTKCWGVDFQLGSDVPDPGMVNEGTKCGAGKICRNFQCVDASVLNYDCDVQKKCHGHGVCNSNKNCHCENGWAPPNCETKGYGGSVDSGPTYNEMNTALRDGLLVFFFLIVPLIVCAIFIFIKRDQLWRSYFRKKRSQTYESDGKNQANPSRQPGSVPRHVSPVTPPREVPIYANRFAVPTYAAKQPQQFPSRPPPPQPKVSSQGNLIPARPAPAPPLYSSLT

| Binder | Kd [1] [nM] | koff [1] [s⁻¹] | kon [1] [M⁻¹ s⁻¹] | EC50 for internalization [2] [nM] | Maximum internalization rate (%) [2] [%] |
| --- | --- | --- | --- | --- | --- |
| Ab15 (antibody, human IgG1, kappa, V domains shown, Humanized anti-ADAM9 IgG1/kappa; also called Ab15-V (variable regions)) VH: QVQLQQPGAELKKPGASVKVSCKASGFTFPLYWMNWVRQRPGRGLEWIGRIIPIFGHTKYNEKFKDRATMTADESSSTAYMELSSLTSEDSAVYYCARGGYYYYPREGFLDYWGQGTSVTVSS VL: DIVMTQSPDSLSVSPGERATINCRSSQSVDYSGDSYMNWYQQKPGQSPRLLIYAASDRESGVPDRFSGSGSGTDFTLKISNVEEEDAATYYCQQSREDPFTFGQGTRVEIKR | 4.03 | 0.000697 | 173000 | 0.17 | 81.8 |
| Ab16 (antibody, human IgG1, kappa, V domains shown, Humanized anti-ADAM9 IgG1/kappa; also called Ab16-V (variable regions)) VH: QVQLQQPGTEVVKPGASVKLSCKASGFTFPLYWMHWVRQRPGRGLEWIGRIIPIFGHTKYNEKFKNKATLTADESSSTAYMELRSLTSDDSAVYYCARGGYYYYPREGFLDYWGQGTSVTVSS VL: DIVMTQSPASLSVSPGERASISCRSSQSVDYSGDSYMNWYQQKPGQSPRLLIYAASDRESGVPDRFSGSGSGTDFTLKISRVEEEDAGTYYCQQSREDPFTFGQGTKVDIKR | 5.01 | 0.000816 | 163000 | 0.12 | 83.3 |
